Measurements as given in patent US20210380703A1.

B1: 373_B03 (antibody, V domains shown)
VH: EVQLLESGGGLVQPGGSLRLSCAASGFTFSSYSMNWVRQAPGKGLEWVAGINYNSGYKSYADSVKGRFTISRDNSKNTLYLQMNSLRAEDTAVYYCARSATWHDTHLDYWGQGTLVTVSS
VL: DIQMTQSPSSLSASVGDRVTITCRASQSILTYLNWYQQKPGKAPKLVIYAATSLASGVPSRFSGSGSGTDFTLTISSLQPEDFATYYCQQSYDNPLTFGGGTKVEIK
B2: 374_C04 (antibody, V domains shown)
VH: EVQLLESGGGLVQPGGSLRLSCAASGFTFSSYSMNWVRQAPGKGLEWVAGINYNSGYKSYADSVKGRFTISRDNSKNTLYLQMNSLRAEDTAVYYCARSATWHDTHLDYWGQGTLVTVSS
VL: DIQMTQSPSSLSASVGDRVTITCRASQSILTYLNWYQQKPGKAPKLLIYAASSLQSGVPSRFSGSGSGTDFTLTISSLQPEDFATYYCQQSYELPLTFGGGTKVEIK
B3: 371_F05 (antibody, V domains shown)
VH: EVQLLESGGGLVQPGGSLRLSCAASGFTFSSYSMNWVRQAPGKGLEWVAGINYNSGYKSYADSVKGRFTISRDNSKNTLYLQMNSLRAEDTAVYYCARSATWHDTHLDYWGQGTLVTVSS
VL: DIQMTQSPSSLSASVGDRVTITCRASQSILSYLNWYQQKPGKAPKLLIYAATSRHSGVPSRFSGSGSGTDFTLTISSLQPEDFATYYCQQSYENPLTFGGGTKVEIK
B4: 369_A10 (antibody, V domains shown)
VH: EVQLLESGGGLVQPGGSLRLSCAASGFTFDSYSMNWVRQAPGKGLEWVAGINYNSGYTGYADSVKGRFTISRDNSKNTLYLQMNSLRAEDTAVYYCARSATWHDTHLDYWGQGTLVTVSS
VL: DIQMTQSPSSLSASVGDRVTITCRASQSILSYLNWYQQKPGKAPKLLIYAATSRASGVPSRFSGSGSGTDFTLTISSLQPEDFATYYCQQSYELPLTFGGGTKVEIK
B5: 375_G07 (antibody, V domains shown)
VH: EVQLLESGGGLVQPGGSLRLSCAASGFTFDSYSMNWVRQAPGKGLEWVAGINYNSGYTSYADSVKGRFTISRDNSKNTLYLQMNSLRAEDTAVYYCARSATWHDTHLDYWGQGTLVTVSS
VL: DIQMTQSPSSLSASVGDRVTITCRASQSILSYLNWYQQKPGKAPKLVIYAATSLASGVPSRFSGSGSGTDFTLTISSLQPEDFATYYCQQSYDLPLTFGGGTKVEIK
B6: 374_D02 (antibody, V domains shown)
VH: EVQLLESGGGLVQPGGSLRLSCAASGFTFDSYSMNWVRQAPGKGLEWVAGINYNSGYTSYADSVKGRFTISRDNSKNTLYLQMNSLRAEDTAVYYCARSATWHDTHLDYWGQGTLVTVSS
VL: DIQMTQSPSSLSASVGDRVTITCRASQSISTYVNWYQQKPGKAPKLLIYAVTSLASGVPSRFSGSGSGTDFTLTISSLQPEDFATYYCQQSYDSPLTFGGGTKVEIK
B7: 365_A10 (antibody, V domains shown)
VH: EVQLLESGGGLVQPGGSLRLSCAASGFTFSSYGMHWVRQAPGKGLEWVAGINYNSGYTSYADSVKGRFTISRDNSKNTLYLQMNSLRAEDTAVYYCARSATWHDTHLDYWGQGTLVTVSS
VL: DIQMTQSPSSLSASVGDRVTITCRASQSILTYLNWYQQKPGKAPKLVIYAVTSLASGVPSRFSGSGSGTDFTLTISSLQPEDFATYYCQQSYDSPLTFGGGTKVEIK
B8: 371_G03 (antibody, V domains shown)
VH: EVQLLESGGGLVQPGGSLRLSCAASGFTFSSYGMNWVRQAPGKGLEWVANINYNGGYKGYADSVKGRFTISRDNSKNTLYLQMNSLRAEDTAVYYCARSATWHDTHLDYWGQGTLVTVSS
VL: DIQMTQSPSSLSASVGDRVTITCRASQSIVTYVNWYQQKPGKAPKLVIYAATSLASGVPSRFSGSGSGTDFTLTISSLQPEDFATYYCQQSYNLPLTFGGGTKVEIK
B9: 370_E07 (antibody, V domains shown)
VH: EVQLLESGGGLVQPGGSLRLSCAASGFTFDSYSMNWVRQAPGKGLEWVANINYNGGYTGYADSVKGRFTISRDNSKNTLYLQMNSLRAEDTAVYYCARSATWHDTHLDYWGQGTLVTVSS
VL: DIQMTQSPSSLSASVGDRVTITCRASQSILTYLNWYQQKPGKAPKLLIYAATSRASGVPSRFSGSGSGTDFTLTISSLQPEDFATYYCQQSYDNPLTFGGGTKVEIK
B10: 375_B04 (antibody, V domains shown)
VH: EVQLLESGGGLVQPGGSLRLSCAASGFTFDSYSMNWVRQAPGKGLEWVANINYNGGYTGYADSVKGRFTISRDNSKNTLYLQMNSLRAEDTAVYYCARSATWHDTHLDYWGQGTLVTVSS
VL: DIQMTQSPSSLSASVGDRVTITCRASQSILTYLNWYQQKPGKAPKLLIYAATSRASGVPSRFSGSGSGTDFTLTISSLQPEDFATYYCQQSYDNPLTFGGGTKVEIK
B11: 367_G07 (antibody, V domains shown)
VH: EVQLLESGGGLVQPGGSLRLSCAASGFTFDSYSMNWVRQAPGKGLEWVANINYNGGYTGYADSVKGRFTISRDNSKNTLYLQMNSLRAEDTAVYYCARSATWHDTHLDYWGQGTLVTVSS
VL: DIQMTQSPSSLSASVGDRVTITCRASQSILTYVNWYQQKPGKAPKLLIYAATSRASGVPSRFSGSGSGTDFTLTISSLQPEDFATYYCQQSYDNPLTFGGGTKVEIK
B12: 375_C12 (antibody, V domains shown)
VH: EVQLLESGGGLVQPGGSLRLSCAASGFTFSSYSMNWVRQAPGKGLEWVANINYNGGYTGYADSVKGRFTISRDNSKNTLYLQMNSLRAEDTAVYYCARSATWHDTHLDYWGQGTLVTVSS
VL: DIQMTQSPSSLSASVGDRVTITCRASQSILTYLNWYQQKPGKAPKLLIYAATSRASGVPSRFSGSGSGTDFTLTISSLQPEDFATYYCQQSYDLPLTFGGGTKVEIK
B13: 365_F08 (antibody, V domains shown)
VH: EVQLLESGGGLVQPGGSLRLSCAASGFTFDDYGMNWVRQAPGKGLEWVANINYNGGYTSYADSVKGRFTISRDNSKNTLYLQMNSLRAEDTAVYYCARSATWHDTHLDYWGQGTLVTVSS
VL: DIQMTQSPSSLSASVGDRVTITCRASQSILSYVNWYQQKPGKAPKLLIYAATSRHSGVPSRFSGSGSGTDFTLTISSLQPEDFATYYCQQSYSLPLTFGGGTKVEIK
B14: 368_G09 (antibody, V domains shown)
VH: EVQLLESGGGLVQPGGSLRLSCAASGFTFDSYGMHWVRQAPGKGLEWVANINYNGGYTSYADSVKGRFTISRDNSKNTLYLQMNSLRAEDTAVYYCARSATWHDTHLDYWGQGTLVTVSS
VL: DIQMTQSPSSLSASVGDRVTITCRASQSIVSYLNWYQQKPGKAPKLVIYAATSRASGVPSRFSGSGSGTDFTLTISSLQPEDFATYYCQQSYDTPLTFGGGTKVEIK
B15: 368_E11 (antibody, V domains shown)
VH: EVQLLESGGGLVQPGGSLRLSCAASGFTFDSYGMHWVRQAPGKGLEWVANINYNGGYTSYADSVKGRFTISRDNSKNTLYLQMNSLRAEDTAVYYCARSATWHDTHLDYWGQGTLVTVSS
VL: DIQMTQSPSSLSASVGDRVTITCRASQSIISYVNWYQQKPGKAPKLLIYAATSRHSGVPSRFSGSGSGTDFTLTISSLQPEDFATYYCQQSYELPLTFGGGTKVEIK
B16: 367_F02 (antibody, V domains shown)
VH: EVQLLESGGGLVQPGGSLRLSCAASGFTFDSYSMNWVRQAPGKGLEWVANINYNGGYTSYADSVKGRFTISRDNSKNTLYLQMNSLRAEDTAVYYCARSATWHDTHLDYWGQGTLVTVSS
VL: DIQMTQSPSSLSASVGDRVTITCRASQSIISYVNWYQQKPGKAPKLLIYAATSRHSGVPSRFSGSGSGTDFTLTISSLQPEDFATYYCQQSYESPLTFGGGTKVEIK
B17: 373_B08 (antibody, V domains shown)
VH: EVQLLESGGGLVQPGGSLRLSCAASGFTFDSYSMNWVRQAPGKGLEWVANINYNSGYKGYADSVKGRFTISRDNSKNTLYLQMNSLRAEDTAVYYCARSATWHDTHLDYWGQGTLVTVSS
VL: DIQMTQSPSSLSASVGDRVTITCRASQSILTYLNWYQQKPGKAPKLVIYAATSLASGVPSRFSGSGSGTDFTLTISSLQPEDFATYYCQQSYENPLTFGGGTKVEIK
B18: 373_B11 (antibody, V domains shown)
VH: EVQLLESGGGLVQPGGSLRLSCAASGFTFSSYSMNWVRQAPGKGLEWVANINYNSGYKGYADSVKGRFTISRDNSKNTLYLQMNSLRAEDTAVYYCARSATWHDTHLDYWGQGTLVTVSS
VL: DIQMTQSPSSLSASVGDRVTITCRASQSILSYLNWYQQKPGKAPKLLIYAATSRASGVPSRFSGSGSGTDFTLTISSLQPEDFATYYCQQSYDNPLTFGGGTKVEIK
B19: 373_F03 (antibody, V domains shown)
VH: EVQLLESGGGLVQPGGSLRLSCAASGFTFDSYSMNWVRQAPGKGLEWVANINYNSGYTGYADSVKGRFTISRDNSKNTLYLQMNSLRAEDTAVYYCARSATWHDTHLDYWGQGTLVTVSS
VL: DIQMTQSPSSLSASVGDRVTITCRASQSILTYVNWYQQKPGKAPKLLIYAATSRHSGVPSRFSGSGSGTDFTLTISSLQPEDFATYYCQQSYDSPLTFGGGTKVEIK
B20: 372_D04 (antibody, V domains shown)
VH: EVQLLESGGGLVQPGGSLRLSCAASGFTFSSYSMNWVRQAPGKGLEWVANINYNSGYTGYADSVKGRFTISRDNSKNTLYLQMNSLRAEDTAVYYCARSATWHDTHLDYWGQGTLVTVSS
VL: DIQMTQSPSSLSASVGDRVTITCRASQSILTYLNWYQQKPGKAPKLLIYAATSLHSGVPSRFSGSGSGTDFTLTISSLQPEDFATYYCQQSYDLPLTFGGGTKVEIK
B21: 366_D02 (antibody, V domains shown)
VH: EVQLLESGGGLVQPGGSLRLSCAASGFTFSSYSMNWVRQAPGKGLEWVASINYNGGYTSYADSVKGRFTISRDNSKNTLYLQMNSLRAEDTAVYYCARSATWHDTHLDYWGQGTLVTVSS
VL: DIQMTQSPSSLSASVGDRVTITCRASQSILSYVNWYQQKPGKAPKLLIYATTSLASGVPSRFSGSGSGTDFTLTISSLQPEDFATYYCQQSYDLPLTFGGGTKVEIK
B22: 368_H12 (antibody, V domains shown)
VH: EVQLLESGGGLVQPGGSLRLSCAASGFTFDSYSMNWVRQAPGKGLEWVASINYNSGYKGYADSVKGRFTISRDNSKNTLYLQMNSLRAEDTAVYYCARSATWHDTHLDYWGQGTLVTVSS
VL: DIQMTQSPSSLSASVGDRVTITCRASQSIVTYLNWYQQKPGKAPKLLIYAATSRASGVPSRFSGSGSGTDFTLTISSLQPEDFATYYCQQSYESPLTFGGGTKVEIK

Molecular target: human Fc (human)
Assay: ELISA; negative control

Row | Binder | optical density [OD]
1 | B1 | 0.18
2 | B2 | 0.201
3 | B3 | 0.297
4 | B4 | 0.348
5 | B5 | 0.178
6 | B6 | 0.204
7 | B7 | 0.293
8 | B8 | 0.359
9 | B9 | 0.379
10 | B10 | 0.19
11 | B11 | 0.295
12 | B12 | 0.197
13 | B13 | 0.437
14 | B14 | 0.281
15 | B15 | 0.341
16 | B16 | 0.315
17 | B17 | 0.17
18 | B18 | 0.178
19 | B19 | 0.179
20 | B20 | 0.419
21 | B21 | 0.349
22 | B22 | 0.381
